According to patent US20190284287A1 (TUSK THERAPEUTICS, published 2019):
Each block holds one binder with its values, some of them ahead of it.

Tests used:
[1] = target: T1, recombinant human CD25 extracellular protein sequence (rhCD25) (human, UniProt P01589 22-240); assay: method not given; upper end of the stated range
T1 construct: also called human CD25 antigen
T1 sequence: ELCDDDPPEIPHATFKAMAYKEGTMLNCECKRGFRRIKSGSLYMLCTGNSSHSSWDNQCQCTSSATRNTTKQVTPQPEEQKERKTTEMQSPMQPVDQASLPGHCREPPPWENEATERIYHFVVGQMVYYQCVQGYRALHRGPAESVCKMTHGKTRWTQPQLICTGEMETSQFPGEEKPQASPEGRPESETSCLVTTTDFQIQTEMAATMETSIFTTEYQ

[2] = target: T2, human CD25 antigen, Sino Biologicals cat no. 10165-H08H (~20% dimer) (human, UniProt P01589 22-213); assay: SPR, Biacore T200; antibody captured by anti-human Fab, CD25 as analyte, Two State Reaction fit; column 'Binding strength' (affinity and/or avidity); Sino Biological CD25 (~20% dimer), Two State Reaction fit; affinity and/or avidity
T2 construct: Bought antigen; also called Sino biological (~20% dimer)
T2 sequence: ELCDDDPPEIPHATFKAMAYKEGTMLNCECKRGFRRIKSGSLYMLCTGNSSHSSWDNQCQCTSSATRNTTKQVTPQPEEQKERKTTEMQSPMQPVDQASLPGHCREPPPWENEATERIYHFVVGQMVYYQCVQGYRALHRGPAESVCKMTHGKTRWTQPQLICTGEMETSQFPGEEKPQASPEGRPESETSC
Text: (§1) Binding of CD25 antibodies to human CD25 antigen was investigated by surface plasmon resonance using a BIACORE T200 instrument (GE Healthcare).
(§2) For calculation of KD and kinetic parameters Biacore provided fitting models were used to obtain optimal curve fitting results. The 1:1 Langmuir fit was used for P1AA5872 and the Two State Kinetic fitting for CD25 from Sino Biologicals and R&D Systems.

[3] = target: T3, recombinant human CD25 his tagged (human, UniProt P01589 22-240); assay: BLI, ForteBio Octet Red96; IgG on AHC sensors, rhCD25-His in solution, 1:1 fit
T3 construct: also called rhCD25-his tag; not shown: His tag
T3 sequence: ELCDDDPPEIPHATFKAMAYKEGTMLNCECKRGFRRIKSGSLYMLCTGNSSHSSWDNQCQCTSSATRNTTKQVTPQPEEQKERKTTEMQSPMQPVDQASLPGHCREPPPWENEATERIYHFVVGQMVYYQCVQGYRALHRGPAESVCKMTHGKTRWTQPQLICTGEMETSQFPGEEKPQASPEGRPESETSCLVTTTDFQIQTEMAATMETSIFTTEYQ

[4] = target: T4, human CD25 expressed on cells (human, UniProt P01589 22-272); assay: flow cytometry on CD3/CD28 bead activated human Pan T cells, gated on CD4+ T cells
T4 construct: Endogenous CD25 on human cell lines and primary cells
T4 sequence: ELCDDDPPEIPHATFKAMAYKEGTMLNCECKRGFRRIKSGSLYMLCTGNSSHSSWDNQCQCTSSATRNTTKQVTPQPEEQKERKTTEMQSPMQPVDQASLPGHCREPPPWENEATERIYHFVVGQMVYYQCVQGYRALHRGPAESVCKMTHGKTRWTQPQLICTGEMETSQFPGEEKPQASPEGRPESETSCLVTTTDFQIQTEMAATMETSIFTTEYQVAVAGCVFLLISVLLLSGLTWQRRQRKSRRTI
Experimental: (§3) Binding to CD25 expressing activated human and Cynomolgus monkey PMBC was examined by staining test articles (anti-CD25 primary antibodies) with 20 μg/ml antibodies followed by semi-log dilution series (7-point) for 30 minutes on ice. This was followed by staining with a secondary antibody (rabbit anti-human Fcg F(ab′)2—(Jackson ImmunoResearch)) concentration of 5 μg/ml for 30 minutes on ice. All samples were stained in triplicates. To minimize cross-linking induced cell death mediated by binding of the secondary antibody, cell lines were examined in staining cohorts of 4 test articles at a time. Live lymphocytes were gated using FSC vs SSC parameters by flow cytometry during sample acquisition. Mean fluorescence intensity (MFI) of gated CD4⁺ and CD8⁺ T cell subsets were plotted on an XY chart, graphing MFI against the log of the concentration, and the data fit to a non-linear regression curve from which the EC50 was calculated.

[5] = target: T4, human CD25 expressed on cells; assay: flow cytometry on CD3/CD28 bead activated human Pan T cells, gated on CD8+ T cells
Experimental: as §3

[6] = target: T5, inhouse produced monomeric human CD25 antigen (P1AA5872) (human, UniProt P01589 22-240, limits assumed); assay: SPR, Biacore T200; antibody captured by anti-human Fab, monomeric CD25 as analyte, 1:1 Langmuir fit; column 'Binding strength'
T5 construct: also called Inhouse (0% dimer)
T5 sequence: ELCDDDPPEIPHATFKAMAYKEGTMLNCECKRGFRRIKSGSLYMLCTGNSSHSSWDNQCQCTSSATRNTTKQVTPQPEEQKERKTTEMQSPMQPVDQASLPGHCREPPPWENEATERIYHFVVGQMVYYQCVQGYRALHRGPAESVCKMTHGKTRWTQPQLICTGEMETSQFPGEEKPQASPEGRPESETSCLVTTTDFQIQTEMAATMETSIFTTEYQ
Experimental: as §1
(§4) The flow cell was set to 25° C. and the sample compartment to 12° C. The CD25 antibody was captured by injecting a 3 μg/ml solution for 60 sec at a flow rate of 10 μl/min. Association of CD25 antigen was measured by injection of human CD25 solutions for 180 sec at a flow rate of 30 μl/min starting with a concentration of 1000 nM down to 1 nM in 1:10 dilution steps. The dissociation phase was triggered by switching from sample solution injection to running buffer and monitored for up to 600 seconds. The surface was regenerated by washing with two consecutive 1-minute injections of 10mM glycine pH 2.1 (provided by the kit) at a flow rate of 10 μl/min. Bulk refractive index differences were corrected by subtracting the response obtained from an anti-human Fab reference surface; blank injections are also subtracted (=double referencing).
as §2

[7] = target: T6, human CD25 antigen, R&D Systems cat no. 223-2A/CF (~10% dimer) (human, UniProt P01589 22-240, limits assumed); assay: SPR, Biacore T200; antibody captured by anti-human Fab, CD25 as analyte, Two State Reaction fit; column 'Binding strength' (affinity and/or avidity)
T6 construct: also called R&D Systems (~10% dimer); huCD25 (IL2R alpha)
T6 sequence: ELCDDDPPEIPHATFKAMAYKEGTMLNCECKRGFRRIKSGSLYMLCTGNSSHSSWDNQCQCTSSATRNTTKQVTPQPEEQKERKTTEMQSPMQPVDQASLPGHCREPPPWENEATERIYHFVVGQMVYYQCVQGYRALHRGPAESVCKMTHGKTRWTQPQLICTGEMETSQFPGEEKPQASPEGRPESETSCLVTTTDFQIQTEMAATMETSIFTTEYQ
Experimental: as §1, §4, §2

[8] = target: T1, recombinant human CD25 extracellular …; assay: method not given; lower end of the stated range
[9] = target: T4, human CD25 expressed on cells; assay: flow cytometry on human in vitro differentiated Treg cells, Alexa Fluor 647 anti-human IgG secondary
Experimental: Binding to CD25 expressing in vitro differentiated Tregs was examined by staining test articles (anti-CD25 primary antibodies) with 30 μg/ml antibodies followed by semi-log dilution series (7-point) for 30 minutes on ice. […] All samples were stained in duplicates. Live cells were gated using FSC vs SSC parameters by flow cytometry during sample acquisition. Mean fluorescence intensity (MFI) of stained cells were plotted on an XY chart, graphing MFI against the log of the concentration, and the data fit to a non-linear regression curve from which the EC50 is calculated.

[10] = target: T3, recombinant human CD25 his tagged; assay: SPR, Biacore 2000; antibody captured by anti-human antibody, rhCD25-His as analyte, two state fit
Experimental: (§5) Anti-human antibody was initially immobilised across all flow cells in analysis buffer (pH 7.4, 10 mM HEPES, 150 mM NaCl, 3 mM EDTA, 0.05% Tween 20) to an RU of between 12,000-14,000 over 10 minutes. […] Dissociation was performed in analysis buffer over 10 minutes. Regeneration steps between sample concentrations were performed in 10 mM Glycin pH1.7 for 10 minutes. A flow rate of 25 μl/min was maintained throughout the process. Kinetics data were fit using a global two state reaction conformational change analysis software provided by Biacore with reference subtraction.

[11] = target: T4, human CD25 expressed on cells; assay: flow cytometry on Karpas 299 cells, Alexa Fluor 647 anti-human IgG Fc secondary [B); D00021 Figure 21 cont. C), D), E]
Experimental: Binding to CD25 expressing Karpas299 cells was examined by staining test articles (anti-CD25 primary antibodies) with 20 μg/ml antibodies followed by semi-log dilution series (7-point) for 30 minutes on ice. […] All samples were stained in duplicates. Live cells were gated using FSC vs SSC parameters by flow cytometry during sample acquisition. Mean fluorescence intensity (MFI) of stained cells were plotted on an XY chart, graphing MFI against the log of the concentration, and the data fit to a non-linear regression curve from which the EC50 is calculated.

[12] = target: T4, human CD25 expressed on cells; assay: cell-based or functional assay
[13] = target: T3, recombinant human CD25 his tagged; assay: SPR, Biacore 2000: IgG1 captured on an anti-human antibody CM-5 chip, rhCD25-his tag as analyte
[14] = target: T3, recombinant human CD25 his tagged; assay: as above; remark: listed apart in the source
Experimental: as §5

[15] = target: T3, recombinant human CD25 his tagged; assay: as above; remark: listed apart in the source
Experimental: as §5

[16] = target: T3, recombinant human CD25 his tagged; assay: as above; remark: listed apart in the source
[17] = target: T3, recombinant human CD25 his tagged; assay: as above; remark: listed apart in the source

B1: aCD25-a-686 (antibody, V domains shown)
VH: QVQLVQSGAEVKKPGSSVKVSCKASGGTFSSLAISWVRQAPGQGLEWMGGIIPIFGTANYAQKFQGRVTITADESTSTAYMELSSLRSEDTAVYYCARGGSVSGTLVDFDIWGQGTMVTVSS
VL: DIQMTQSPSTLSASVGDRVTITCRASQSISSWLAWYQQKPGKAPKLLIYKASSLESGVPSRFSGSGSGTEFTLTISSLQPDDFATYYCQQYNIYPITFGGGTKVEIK
notes: not shown: human IgG1 heavy chain constant region (P01857); human kappa light chain constant region (P01834)
- Kd [1]: ≤ 10 nM
- Kd [2]: 2.5 nM
- Kd [3]: 2.33 nM
- EC50 (read off the curve) [4]: ~0.4 µg/mL
- EC50 (read off the curve) [5]: ~0.5 µg/mL
- Kd [6]: 244 nM
- Kd [7]: 5.8 nM
- Kd [8]: ≥ 0.1 nM
- EC50 (read off the curve) [9]: ~1 µg/mL
- Kd [10]: 3.2 nM
- EC50 (read off the curve) [11]: ~0.5 µg/mL
- ADCC of iTregs by IL-2 activated NK cells: EC50 [12]: 0.21 uG/mL

B3: aCD25-a-686-m2 (antibody, IgG1, V domains shown)
VH: QVQLVQSGAEVKKPGSSVKVSCKASGGTFSSLAITWVRQAPGQGLEWMGGIIPIFGDASYAQKFQGRVTITADESTSTAYMELSSLRSEDTAVYYCARGGSVSGTLVDFDIWGQGTMVTVSS
VL: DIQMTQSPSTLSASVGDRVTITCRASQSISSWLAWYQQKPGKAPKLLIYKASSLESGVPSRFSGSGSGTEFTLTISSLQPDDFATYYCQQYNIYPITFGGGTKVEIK
- Kd [13]: 1.9 nM

B4: aCD25-a-686-m3 (antibody, IgG1, V domains shown)
VH: QVQLVQSGAEVKKPGSSVKVSCKASGGTFSSLAISWVRQAPGQGLEWMGGIIPIFGDANYAQKLQGRVTMTTDTSTSTAYMELRSLRSDDTAVYYCARGGSVSGTLVDFDIWGQGTMVTVSS
VL: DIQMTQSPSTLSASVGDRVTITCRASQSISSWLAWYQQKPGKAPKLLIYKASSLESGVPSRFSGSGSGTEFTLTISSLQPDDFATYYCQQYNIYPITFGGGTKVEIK
- Kd [14]: 0.34 nM

B5: aCD25-a-686-m4 (antibody, IgG1, V domains shown)
VH: QVQLVQSGAEVKKPGSSVKVSCKASGGTFSALAISWVRQAPGQGLEWMGGIIPLFGRANYAQKFQGRVTITADESTSTAYMELSSLRSEDTAVYYCARGGSVSGTLVDFDIWGQGTMVTVSS
VL: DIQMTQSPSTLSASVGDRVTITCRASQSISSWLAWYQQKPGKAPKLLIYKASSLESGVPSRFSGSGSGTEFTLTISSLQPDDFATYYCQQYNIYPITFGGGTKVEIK
- Kd [15]: 0.76 nM

B7: aCD25-a-686-m1 (antibody, IgG1, V domains shown)
VH: QVQLVQSGAEVKKPGSSVKVSCKASGGTFSSLAISWVRQAPGQGLEWMGAIIPVFGTASYAQKFQGRVTITADESTSTAYMELSSLRSEDTAVYYCARGGSVSGTLVDFDIWGQGTMVTVSS
VL: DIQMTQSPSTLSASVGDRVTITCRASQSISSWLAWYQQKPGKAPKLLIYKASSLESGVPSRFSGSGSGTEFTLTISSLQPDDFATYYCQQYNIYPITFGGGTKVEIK
notes: also called aCD25-a-686-ml; aCD25-a-686ml
- Kd [17]: 0.97 nM

Continued, values first:

- ADCC of iTregs by IL-2 activated NK cells: EC50 [12]: 0.01 uG/mL
B2: afucosylated aCD25-a-686 (antibody, human IgG1, V domains shown)
VH: QVQLVQSGAEVKKPGSSVKVSCKASGGTFSSLAISWVRQAPGQGLEWMGGIIPIFGTANYAQKFQGRVTITADESTSTAYMELSSLRSEDTAVYYCARGGSVSGTLVDFDIWGQGTMVTVSS
VL: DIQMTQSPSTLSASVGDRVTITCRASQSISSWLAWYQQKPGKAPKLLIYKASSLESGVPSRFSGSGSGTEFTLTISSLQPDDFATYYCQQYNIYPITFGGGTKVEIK
modifications: Fc glycan afucosylated (>99% of a-fucosylation by LC/MS)

- Kd [16]: 0.66 nM
B6: aCD25-a-686-m5 (antibody, IgG1, V domains shown)
VH: QVQLVQSGAEVKKPGSSVKVSCKASGGTFSSLAIFWVRQAPGQGLEWMGGIIPVFGQANYAQKFQGRVTITVDESTSTAYMELSSLRSEDTAVYYCARGGSVSGTLVDFDIWGQGTMVTVSS
VL: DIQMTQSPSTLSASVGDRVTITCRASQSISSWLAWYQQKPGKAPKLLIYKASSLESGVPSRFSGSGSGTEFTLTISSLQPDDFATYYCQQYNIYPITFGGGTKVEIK
